First the molecules themselves.
B1: antibody 3.6D12 (antibody, V domains shown)
VH: EVMLVESGGGLVRPGGSLKLSCTASGFTFSRCAMSWVRQTPEKRLEWVSAISRDSTYTYYSDSVKGRFTVSRDNAKNTLYLQMSSLRSEDTAMYYCARQIDDYYVDALDYWGQGTSVTVSS
VL: DVQITQSPSYLAASPGETITINCRASKIISKYLAWYQEKPGKTIKLLIYSGFTLQSGIPSRFSGSGSGTDFTLTISSLEPEDFAMYYCQQHNEYPLTFGAGTKLEIKR
notes: Mouse mAb (Method #3), cloned as murine IgG2a LALAPG; Early screens used hybridoma-purified antibody; also called mAb 3.6D12
B2: rabbit monoclonal antibody 5.17D12 (antibody, V domains shown)
VH: QSLEESGGDLVKPGASLTLTCTASGFSFSSNYYMCWVRQAPGKGLEWIACVYVGSGGSTYYASWAKGRFTFSKTSSTTWTLQMTSLTAADTATYFCARDLSYAGDLWGPGTLVTVSS
VL: DPVMTQTPASVSEPVGGTVTINCQASESISSYLAWYQQKPGQPPKLLIYGASNLASGVPSRFKGSGSGTEYTLTISDLECDDAATYYCQSAYYSNSGGHAFGGGTEVVVKG
notes: Rabbit mAb (Method #5), recombinant; also called rabmab 5.17D12
B3: antibody 4.17A5 (antibody, V domains shown)
VH: QVQLQQSGPELLKPGASVKISCKGSGYAFSNSWINWVKLRPGQGLEWIGRIYPGDGDTKYNGKFKGKATLTADKSSSTAHMQLRSLTSVDSAVYFCARFPFGKYEGPGAMDYWGQGTSVTVSS
VL: DIQMTQTTSSLSASLGDRVTISCRASQDISSYLNWYQQKPDGTIKLLIYYTSRLHSGVPSRFSGSGSGTDFSLTISNLEQEDIATYFCQQGNTLPYTFGGGTKLEIKR
notes: Mouse mAb (Method #4), cloned as murine IgG2a LALAPG; also called mAb 4.17A5
B4: antibody 3.7D6 (antibody, V domains shown)
VH: QIQLVQSGPDLKKPGETVKISCRTSGYAFTNYGVNWVKQAPGKGLKWMGWINTNTGQTTYAEEFRGRFAISLETSASTAFLTISNLKNEDSATYFCARLIYDGDYISSDFWGQGTTLTVSS
VL: DIQMTQSPDSLSASVGETVTITCGASENIYGALNWYQRKQGKSPQLLIYGATNLADGMSSRFSGSRSGRQYSLKISSLHPDDVATYYCQNALSMPYTFGGGTKLEIKR
notes: Mouse mAb, cloned as murine IgG2a LALAPG; those versions are not written separately; also called PFD antibody 3.7D6
B5: antibody 3.1C1 (antibody, V domains shown)
VH: QVQLQQSGPELVKPGASVRISCKASGYTFTNYFIHWVKQRPGQGLEWIGWINPGNLNTKYTEEFKGKATLTADKSSSTAYIQLNSLTSEDSAVYFCVNGNPFVYWGQGTLVTVSA
VL: DIVMTQSPSSLTVIAGEKVTLNCKSSQSLLNSGNQKKYLTWLQQKPGQPPKLLIYWTSTRDSGVPDRFTGSGSGTDFTLTISSVQAEDLAVYYCQNDYSYPLTFGAGTKLEIKR
notes: Mouse mAb, cloned as murine IgG2a LALAPG; not written separately; also called SRA-ID mAb 3.1C1
B6: antibody 3.6E10 (antibody, V domains shown)
VH: QVQLQQSGAELAKPGASVKMSCKASGYIFTSYYLHWVKQRPGQGLEWIGYINPNTGYTEYTQNFKDRATLTADKSSSTAYMQLTSLTSEDSAVYFCVNGNPFVYWGQGTLVTVSA
VL: B5 VL with I14T, A15T, L21M, N22T, K24R, K37N, L42F, D61Y
notes: Mouse mAb, cloned as murine IgG2a LALAPG
B7: antibody 4.12E5 (antibody, V domains shown)
VH: EVQLQQSGPELVKTGASVKISCKASGYSFTGYFMHWVKQSHGKSLEWIGYISCYNGASVYNQRFKGKATFTIDTSSSTAYMQFNSLTSEDSAVYYCARDVLRYPRYAVDYWGQGTSVTVSS
VL: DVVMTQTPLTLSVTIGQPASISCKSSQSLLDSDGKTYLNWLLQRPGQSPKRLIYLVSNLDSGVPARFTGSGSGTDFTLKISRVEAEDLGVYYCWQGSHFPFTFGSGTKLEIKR
notes: as for B6

Changes are numbered by the printed parent chain.

In one experiment the target is T1, APOL6-myc-FLAG (human, UniProt Q9BWW8 1-343).
T1 construct: whole, on cells; In fixed, permeabilized transfected COS cells; untagged APOL6 in the western blots; not shown: C-terminal myc-FLAG tag
T1 sequence (looked up): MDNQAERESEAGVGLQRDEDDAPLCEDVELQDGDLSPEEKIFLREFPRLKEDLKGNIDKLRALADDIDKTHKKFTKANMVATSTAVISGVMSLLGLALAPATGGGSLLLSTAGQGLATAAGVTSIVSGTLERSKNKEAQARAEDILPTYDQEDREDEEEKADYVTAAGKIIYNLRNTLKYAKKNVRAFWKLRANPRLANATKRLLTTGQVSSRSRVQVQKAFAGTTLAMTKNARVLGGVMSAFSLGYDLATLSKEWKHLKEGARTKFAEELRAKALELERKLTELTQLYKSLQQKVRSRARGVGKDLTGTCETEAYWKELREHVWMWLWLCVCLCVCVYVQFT
Put plainly: immunofluorescence on transfected COS cells; grade. An excerpt: COS cells were transfected as in FIG. 31A except APOL1 and APOL2 were also C-terminally myc-FLAG tagged. Overlays of APOL with epitope tags: either mouse anti-FLAG-M2 or mouse anti-myc 9E10 for anti-APOL1 rabmabs; or rabbit anti-Myc 71D10 in conjunction with mouse anti-APOL1. Signals indicate the two antibodies overlap (i.e. anti-APOL1 cross-reacts with that APOL); signals (epitope tag only) indicate no cross-reactivity. Alexa647 anti-rabbit or mouse were used for the tags to rule out the possibility that any colocalization was a bleed-through artifact. Sparsely transfected areas were imaged to permit evaluation of background staining in adjacent untransfected cells—DAPI nuclear staining identifies both untransfected and transfected cell nuclei. […] Note that none of the antibodies cross-reacted with the more distantly related APOL6. *, APOL2-myc-FLAG is presumably misfolded, since it is not as cross-reactive as untagged APOL2 (compare FIG. 31A) with several antibodies. Commercial antibodies are Sigma HPA018885, Epitomics EPR2907 (2) (Epito) and Proteintech 11486-2-AP (Ptech).
Cells were plated on LabTekII (Nalge Nunc 154534) slides and fixed at 70-100% confluency. For mAb screening, cells were fixed/permeabilized for 5 min in −20° C. methanol (EMD MX0485-6). For all other experiments, cells were fixed in 3% paraformaldehyde in PBS (EMS 15710) for 20 mins at room temperature, quenched with 50 mM NH₄Cl in PBS for 10 mins, then permeabilized with 0.1% TX-100 in PBS for 4 mins or for 1h in saponin buffer [0.4% saponin (Sigma S7900), 1% bovine serum albumin (BSA; Sigma A2153), 2% fetal bovine serum (Seradigm) in PBS]. First antibodies (stored sterile at 4° C.) were applied for 1 h at room temperature, at 1 μg/ml for screening on transfected cells or at subsequently optimized concentrations for detecting endogenous APOL1. After 3×10 min washes in PBS (for Methanol or TX-100 protocols) or saponin buffer (saponin protocol), secondary antibodies were applied at 1.88 μg/ml for 1 h at room temperature, washed 3× and mounted under No. 1.5 coverslips in ProLong Gold with DAPI (4′,6-diamidino-2-phenylindole; Life Technologies P36931).
As to B1, the binding result is “no binding (tested: 1 µg/ml)”. As to B2, the binding result is reported as “no binding (tested: 1 µg/ml)”.

As to B3, the binding result is listed as “no binding (tested: 1 µg/ml)”.

As for B4, the binding result is recorded as “no binding (tested: 1 µg/ml)”.

In the case of B5, the binding result was “no binding (tested: 1 µg/ml)”. On the same count and under the same terms, the entry for B6 is “no binding (tested: 1 µg/ml)”.

The target in another experiment is T2, circulating APOL1 in normal human serum (human, UniProt O14791 28-398).
T2 construct: mature; Serum of healthy volunteers; lipoprotein-associated; also called serum APOL1; HDL APOL1
T2 sequence (looked up): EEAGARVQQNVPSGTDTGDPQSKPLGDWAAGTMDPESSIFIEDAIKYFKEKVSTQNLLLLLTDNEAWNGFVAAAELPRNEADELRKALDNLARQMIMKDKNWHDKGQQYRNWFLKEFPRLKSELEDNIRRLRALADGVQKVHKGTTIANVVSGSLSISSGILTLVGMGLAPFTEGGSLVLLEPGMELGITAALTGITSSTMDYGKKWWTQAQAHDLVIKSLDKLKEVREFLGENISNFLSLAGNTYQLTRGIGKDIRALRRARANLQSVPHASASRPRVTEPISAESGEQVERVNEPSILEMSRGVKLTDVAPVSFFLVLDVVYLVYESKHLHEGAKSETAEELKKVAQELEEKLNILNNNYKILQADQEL
As to the kind of experiment: summary of the Examples: trypanolysis blocking as proxy for serum APOL1. The procedure: The trypanolysis assay used herein to text specificity of antibodies for serum APOL1 is as follows. Trypanosoma brucei brucei were obtained from ATCC and cultured in HMI-9 media containing IMDM (Genentech), heat-inactivated (56° C. for 30 min) FBS (Seradigm IXL9/06807/GEN), 1% serum plus (Sigma 14008C), HMI-9 (Genentech) and 1% hypoxanthine (Genentech). Trypanosome lysis was performed by treating 1×10⁵ Trypanosomes with serial dilutions of NHS or recombinant APOL1 for 16 h in a total of 100 μl. Live cell read out was done by the Alamar Blue assay as per the manufacturer's protocol, (Thermo Fisher, DAL1100). Briefly 10 μl of Alamar Blue was added to each well, incubated at 37° C. for 4 h. Red fluorescence, indicating live trypanosomes, was measured on a SpectraMax® fluorimeter powered by SoftMAX® PRO with excitation at 530 nm and emission 590 nm. For the antibody blocking assay, 1% normal human serum was preincubated with 1-10 μg/ml of anti-APOL1 antibody or media at room temperature for 20 minutes followed by addition of trypanosomes. After 16 h, the Alamar Blue assay was performed as above and background values for media only were subtracted and % blocking calculated by normalizing to no antibody control.
Trypanosoma brucei brucei were obtained under MTA from ATCC and cultured in HMI-9 media containing IMDM (Genentech), heat-inactivated (56° C. for 30 min) FBS (Seradigm IXL9/06807/GEN), 1% serum plus (Sigma 14008C), HMI-9 (Genentech) and 1% hypoxanthine (Genentech). Trypanosome lysis was performed by treating 1×10⁵ Trypanosomes with serial dilutions of NHS or recombinant APOL1 for 16 h in a total of 100 μl. Live cell read out was done by the Alamar Blue assay as per the manufacturer's protocol (30) (Thermo Fisher, DAL1100). Briefly 10 μl of Alamar Blue was added to each well, incubated at 37° C. for 4 h. Red fluorescence, indicating live trypanosomes, was measured on a SpectraMax fluorimeter powered by SoftMAX PRO with excitation at 530 nm and emission 590 nm. For the antibody blocking assay, 1% normal human serum was preincubated with 1-10 μg/ml of anti-APOL1 antibody or media at room temperature for 20 mins followed by addition of trypanosomes.
In the case of B1, the binding result was “binds”. Still for that read-out and setting: the value for B7 was “binds”; that for B2 was “binds”; that for B3 was “binds”. Still for that read-out and setting: the entry for B5 is “binds”; for B6 it is “binds”.

The values above are taken from US20230071609A1 (Genentech, published 2023).
